Results reported in IntAct's records for PubMed 34606829.

B1: ALK tyrosine kinase receptor (Homo sapiens), Q9UM73 (parent)
chain: MGAIGLLWLLPLLLSTAAVGSGMGTGQRAGSPAAGPPLQPREPLSYSRLQRKSLAVDFVVPSLFRVYARDLLLPPSSSELKAGRPEARGSLALDCAPLLRLLGPAPGVSWTAGSPAPAEARTLSRVLKGGSVRKLRRAKQLVLELGEEAILEGCVGPPGEAAVGLLQFNLSELFSWWIRQGEGRLRIRLMPEKKASEVGREGRLSAAIRASQPRLLFQIFGTGHSSLESPTNMPSPSPDYFTWNLTWIMKDSFPFLSHRSRYGLECSFDFPCELEYSPPLHDLRNQSWSWRRIPSEEASQMDLLDGPGAERSKEMPRGSFLLLNTSADSKHTILSPWMRSSSEHCTLAVSVHRHLQPSGRYIAQLLPHNEAAREILLMPTPGKHGWTVLQGRIGRPDNPFRVALEYISSGNRSLSAVDFFALKNCSEGTSPGSKMALQSSFTCWNGTVLQLGQACDFHQDCAQGEDESQMCRKLPVGFYCNFEDGFCGWTQGTLSPHTPQWQVRTLKDARFQDHQDHALLLSTTDVPASESATVTSATFPAPIKSSPCELRMSWLIRGVLRGNVSLVLVENKTGKEQGRMVWHVAAYEGLSLWQWMVLPLLDVSDRFWLQMVAWWGQGSRAIVAFDNISISLDCYLTISGEDKILQNTAPKSRNLFERNPNKELKPGENSPRQTPIFDPTVHWLFTTCGASGPHGPTQAQCNNAYQNSNLSVEVGSEGPLKGIQIWKVPATDTYSISGYGAAGGKGGKNTMMRSHGVSVLGIFNLEKDDMLYILVGQQGEDACPSTNQLIQKVCIGENNVIEEEIRVNRSVHEWAGGGGGGGGATYVFKMKDGVPVPLIIAAGGGGRAYGAKTDTFHPERLENNSSVLGLNGNSGAAGGGGGWNDNTSLLWAGKSLQEGATGGHSCPQAMKKWGWETRGGFGGGGGGCSSGGGGGGYIGGNAASNNDPEMDGEDGVSFISPLGILYTPALKVMEGHGEVNIKHYLNCSHCEVDECHMDPESHKVICFCDHGTVLAEDGVSCIVSPTPEPHLPLSLILSVVTSALVAALVLAFSGIMIVYRRKHQELQAMQMELQSPEYKLSKLRTSTIMTDYNPNYCFAGKTSSISDLKEVPRKNITLIRGLGHGAFGEVYEGQVSGMPNDPSPLQVAVKTLPEVCSEQDELDFLMEALIISKFNHQNIVRCIGVSLQSLPRFILLELMAGGDLKSFLRETRPRPSQPSSLAMLDLLHVARDIACGCQYLEENHFIHRDIAARNCLLTCPGPGRVAKIGDFGMARDIYRASYYRKGGCAMLPVKWMPPEAFMEGIFTSKTDTWSFGVLLWEIFSLGYMPYPSKSNQEVLEFVTSGGRMDPPKNCPGPVYRIMTQCWQHQPEDRPNFAIILERIEYCTQDPDVINTALPIEYGPLVEEEEKVPVRPKDPEGVPPLLVSQQAKREEERSPAAPPPLPTTSSGKAAKKPTAAEISVRVPRGPAVEGGHVNMAFSQSNPPSELHKVHGSRNKPTSLWNPTYGSWFTEKPTKKNNPIAKKEPHDRGNLGLEGSCTVPPNVATGRLPGASLLLEPSSLTANMKEVPLFRLRHFPCGNVNYGYQQQGLPLEAATAPGAGHYEDTILKSKNSMNQPGP
partner: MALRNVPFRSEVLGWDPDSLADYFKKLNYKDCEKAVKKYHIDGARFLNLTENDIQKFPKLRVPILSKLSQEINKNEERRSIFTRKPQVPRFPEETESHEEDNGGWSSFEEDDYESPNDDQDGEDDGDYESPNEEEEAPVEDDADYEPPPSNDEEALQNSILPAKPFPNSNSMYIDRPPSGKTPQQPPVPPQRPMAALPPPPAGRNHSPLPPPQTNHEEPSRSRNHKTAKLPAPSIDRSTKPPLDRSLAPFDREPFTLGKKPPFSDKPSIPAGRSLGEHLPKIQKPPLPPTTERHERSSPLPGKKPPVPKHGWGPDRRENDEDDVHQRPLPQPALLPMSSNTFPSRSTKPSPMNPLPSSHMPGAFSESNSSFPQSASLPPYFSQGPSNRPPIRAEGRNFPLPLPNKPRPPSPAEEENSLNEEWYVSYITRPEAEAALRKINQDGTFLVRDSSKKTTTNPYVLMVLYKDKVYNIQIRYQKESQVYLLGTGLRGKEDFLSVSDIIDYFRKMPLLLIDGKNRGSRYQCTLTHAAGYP
B2: ALK tyrosine kinase receptor (Homo sapiens), Q9UM73 (parent)
chain: B1 chain
partner: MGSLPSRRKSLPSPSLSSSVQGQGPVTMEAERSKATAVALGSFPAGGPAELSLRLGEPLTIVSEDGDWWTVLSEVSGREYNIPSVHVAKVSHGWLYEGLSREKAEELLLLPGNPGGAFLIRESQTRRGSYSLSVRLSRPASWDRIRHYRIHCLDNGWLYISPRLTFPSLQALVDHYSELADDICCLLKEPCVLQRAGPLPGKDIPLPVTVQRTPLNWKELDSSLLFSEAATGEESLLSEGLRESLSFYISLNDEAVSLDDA
B3: ALK tyrosine kinase receptor (Homo sapiens), Q9UM73 (parent)
chain: B1 chain
partner: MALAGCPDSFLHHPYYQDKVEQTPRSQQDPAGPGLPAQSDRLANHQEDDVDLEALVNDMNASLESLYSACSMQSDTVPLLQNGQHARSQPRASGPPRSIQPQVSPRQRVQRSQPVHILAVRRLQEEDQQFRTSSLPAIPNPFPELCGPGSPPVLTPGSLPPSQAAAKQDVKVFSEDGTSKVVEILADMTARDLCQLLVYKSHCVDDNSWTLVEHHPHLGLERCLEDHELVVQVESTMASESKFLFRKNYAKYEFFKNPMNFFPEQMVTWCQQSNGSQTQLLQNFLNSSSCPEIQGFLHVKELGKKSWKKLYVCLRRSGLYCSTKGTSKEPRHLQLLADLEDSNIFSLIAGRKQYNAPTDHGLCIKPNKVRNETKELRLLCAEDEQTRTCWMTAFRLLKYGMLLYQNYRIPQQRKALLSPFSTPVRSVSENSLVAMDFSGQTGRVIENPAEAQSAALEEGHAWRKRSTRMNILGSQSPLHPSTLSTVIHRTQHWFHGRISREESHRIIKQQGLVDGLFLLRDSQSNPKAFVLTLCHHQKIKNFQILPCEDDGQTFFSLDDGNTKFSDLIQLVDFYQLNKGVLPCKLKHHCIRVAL
B4: ALK tyrosine kinase receptor (Homo sapiens), Q9UM73 (parent)
chain: B1 chain
partner: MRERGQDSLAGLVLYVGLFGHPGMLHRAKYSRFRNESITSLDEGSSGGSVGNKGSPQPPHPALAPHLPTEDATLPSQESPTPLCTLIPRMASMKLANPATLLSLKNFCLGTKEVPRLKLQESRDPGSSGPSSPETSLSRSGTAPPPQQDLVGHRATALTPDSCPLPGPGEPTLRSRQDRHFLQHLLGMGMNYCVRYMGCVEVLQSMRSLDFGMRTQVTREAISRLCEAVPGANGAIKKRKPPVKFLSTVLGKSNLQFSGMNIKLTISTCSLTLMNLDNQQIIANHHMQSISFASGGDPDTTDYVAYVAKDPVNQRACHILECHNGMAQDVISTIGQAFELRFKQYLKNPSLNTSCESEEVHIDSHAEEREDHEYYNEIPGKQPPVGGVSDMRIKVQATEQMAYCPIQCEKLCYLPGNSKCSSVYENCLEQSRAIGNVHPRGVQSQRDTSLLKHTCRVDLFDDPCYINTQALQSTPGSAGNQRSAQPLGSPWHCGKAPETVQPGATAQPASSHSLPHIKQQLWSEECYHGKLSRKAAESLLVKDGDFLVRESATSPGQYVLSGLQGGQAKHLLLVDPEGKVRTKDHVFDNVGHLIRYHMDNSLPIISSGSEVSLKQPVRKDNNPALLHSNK
B5: ALK tyrosine kinase receptor (Homo sapiens), Q9UM73 (parent)
chain: B1 chain
partner: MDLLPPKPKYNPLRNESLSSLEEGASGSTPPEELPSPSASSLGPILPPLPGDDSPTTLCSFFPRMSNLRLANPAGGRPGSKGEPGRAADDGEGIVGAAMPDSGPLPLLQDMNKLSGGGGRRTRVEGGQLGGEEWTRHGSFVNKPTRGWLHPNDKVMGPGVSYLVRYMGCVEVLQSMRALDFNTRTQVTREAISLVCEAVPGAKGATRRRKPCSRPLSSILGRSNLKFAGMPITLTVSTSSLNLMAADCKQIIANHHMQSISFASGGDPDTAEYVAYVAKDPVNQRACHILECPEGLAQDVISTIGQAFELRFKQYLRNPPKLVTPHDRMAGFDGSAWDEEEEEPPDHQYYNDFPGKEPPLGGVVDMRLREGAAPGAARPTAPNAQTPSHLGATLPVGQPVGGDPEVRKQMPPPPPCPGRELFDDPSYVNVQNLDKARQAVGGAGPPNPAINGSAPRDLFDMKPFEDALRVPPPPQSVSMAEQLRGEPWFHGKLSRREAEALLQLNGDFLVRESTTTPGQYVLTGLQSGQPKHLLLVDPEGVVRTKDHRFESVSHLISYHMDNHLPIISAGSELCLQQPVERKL
B6: ALK tyrosine kinase receptor (Homo sapiens), Q9UM73 (parent)
chain: B1 chain
partner: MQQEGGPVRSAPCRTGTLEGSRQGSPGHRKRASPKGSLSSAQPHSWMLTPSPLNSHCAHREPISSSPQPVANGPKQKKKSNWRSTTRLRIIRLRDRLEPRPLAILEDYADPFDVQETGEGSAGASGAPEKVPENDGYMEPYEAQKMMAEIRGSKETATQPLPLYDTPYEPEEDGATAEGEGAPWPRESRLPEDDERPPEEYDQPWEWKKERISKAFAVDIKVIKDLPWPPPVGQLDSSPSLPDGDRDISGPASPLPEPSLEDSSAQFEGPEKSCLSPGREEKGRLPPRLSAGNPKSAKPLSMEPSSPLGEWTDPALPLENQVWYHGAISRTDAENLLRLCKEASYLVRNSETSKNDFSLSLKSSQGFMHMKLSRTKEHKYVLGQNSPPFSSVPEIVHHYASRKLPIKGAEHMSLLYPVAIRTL
B7: ALK tyrosine kinase receptor (Homo sapiens), Q9UM73 (parent)
chain: B1 chain
partner: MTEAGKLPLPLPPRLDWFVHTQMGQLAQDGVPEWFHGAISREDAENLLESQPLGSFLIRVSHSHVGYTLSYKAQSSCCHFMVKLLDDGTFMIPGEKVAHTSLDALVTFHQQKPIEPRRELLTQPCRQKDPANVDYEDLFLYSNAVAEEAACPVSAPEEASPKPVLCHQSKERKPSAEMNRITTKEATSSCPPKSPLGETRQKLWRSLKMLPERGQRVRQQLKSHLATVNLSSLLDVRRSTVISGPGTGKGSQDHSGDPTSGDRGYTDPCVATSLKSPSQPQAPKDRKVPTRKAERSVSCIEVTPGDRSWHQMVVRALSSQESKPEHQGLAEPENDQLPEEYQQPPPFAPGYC
B8: ALK tyrosine kinase receptor (Homo sapiens), Q9UM73 (parent)
chain: B1 chain
partner: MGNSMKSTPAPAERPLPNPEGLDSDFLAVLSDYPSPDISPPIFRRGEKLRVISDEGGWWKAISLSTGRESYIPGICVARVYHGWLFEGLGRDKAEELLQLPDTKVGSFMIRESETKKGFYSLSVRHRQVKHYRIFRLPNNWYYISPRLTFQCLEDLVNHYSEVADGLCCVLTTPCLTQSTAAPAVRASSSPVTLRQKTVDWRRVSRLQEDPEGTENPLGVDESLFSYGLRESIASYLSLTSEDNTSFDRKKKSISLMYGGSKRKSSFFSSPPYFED

Variants of: B1
Conditions: with lcp2_human LCP2, Q13094

Row | Variant | effect of a mutation on the interaction
1 | L1196M | increasing interaction strength
2 | F1245C | increasing interaction strength
3 | I1250T | decreasing interaction strength

Variants of: B2
Conditions: with slap2_human SLA2, Q9H6Q3

Row | Variant | effect of a mutation on the interaction
4 | F1245C | increasing interaction strength
5 | L1196M | increasing interaction strength
6 | I1250T | decreasing interaction strength

Variants of: B3
Conditions: with grb10_human GRB10, Q13322

Row | Variant | effect of a mutation on the interaction
7 | I1250T | decreasing interaction strength
8 | L1196M | increasing interaction strength
9 | F1245C | increasing interaction strength

Variants of: B4
Conditions: with shc4_human SHC4, Q6S5L8

Row | Variant | effect of a mutation on the interaction
10 | I1250T | decreasing interaction strength
11 | L1196M | increasing interaction strength
12 | F1245C | increasing interaction strength

Variants of: B5
Conditions: with shc1_human SHC1, P29353

Row | Variant | effect of a mutation on the interaction
13 | F1245C | increasing interaction strength
14 | I1250T | decreasing interaction strength
15 | L1196M | increasing interaction strength

Variants of: B6
Conditions: with shf_human SHF

Row | Variant | effect of a mutation on the interaction
16 | I1250T | decreasing interaction strength
17 | L1196M | increasing interaction strength
18 | F1245C | increasing interaction strength

Variants of: B7
Conditions: with hsh2d_human HSH2D

Row | Variant | effect of a mutation on the interaction
19 | L1196M | increasing interaction strength
20 | I1250T | decreasing interaction strength
21 | F1245C | increasing interaction strength

Variants of: B8
Conditions: with slap1_human SLA

Row | Variant | effect of a mutation on the interaction
22 | L1196M | increasing interaction strength
23 | F1245C | increasing interaction strength
24 | I1250T | decreasing interaction strength
